The test system of the data set is His-SUMO-Piwi PAZ domain (Drosophila melanogaster). Briefly: ITC. Particulars: 2'-O-methyl at 3' end; ITC buffer not in material (PAZ purified in 10 mM Tris-HCl pH 8.0, 500 mM NaCl); cleavage assays 27 C, 17 h (bead/supernatant assay conditions not given) ….

In the case of 8-mer RNA with 3' 2'-O-methyl, the dissociation constant Kd (usually the equilibrium constant for the complex coming apart) turned out to be 4 µM.

The values are drawn from paper PMC7015924.
